Data set [1] is described as follows: Thermostability assay using SYPRO Orange. It counts as physicochemical. The protocol: The stability of ATB200 in acidic or neutral pH buffers was evaluated in a thermostability assay using SYPRO Orange, as the fluorescence of the dye increases when proteins denature. […] As summarized in Table 6, the addition of AT2221 increased the melting temperature (Tm) of ATB200 by nearly 10° C.

The target of data set [2] is T1, CIMPR (Homo sapiens, UniProt P11717). The experiment in a line: CIMPR plate binding assay. As to the method:
In addition to having a greater percentage of rhGAA that can bind to the CIMPR, it is important to understand the quality of that interaction. Lumizyme® and ATB200 receptor binding was determined using a CIMPR plate binding assay. Briefly, CIMPR-coated plates were used to capture GAA. Varying concentrations of rhGAA were applied to the immobilized receptor and unbound rhGAA was washed off. The amount of remaining rhGAA was determined by GAA activity. […] For Lumizyme®, there is on average only 10% of molecules having a bis-phosphorylated N-glycan. In contrast, on average every rhGAA molecule in ATB200 has at least one bis-phosphorylated N-glycan.
N-glycan analysis via MALDI-TOF mass spectrometry confirmed that on average each ATB200 molecule contains at least one natural bis-M6P N-glycan structure.

The subject of data set [3] is normal and Pompe fibroblast cell lines. The experiment in a line: Cellular uptake of rhGAA in fibroblasts. It counts as cell-based. To be noted: for concentration that saturates cellular receptors: 16-hr incubation, internalized GAA by 4MU-α-Glucoside hydrolysis; for uptake efficiency constant (Kuptake): extrapolated from uptake results. The protocol:
The relative cellular uptake of ATB200 and Lumizyme® rhGAA were compared using normal and Pompe fibroblast cell lines. Comparisons involved 5-100 nM of ATB200 according to the invention with 10-500 nM conventional rhGAA product Lumizyme® After 16-hr incubation, external rhGAA was inactivated with TRIS base and cells were washed 3-times with PBS prior to harvest. Internalized GAA measured by 4MU-α-Glucoside hydrolysis and was graphed relative to total cellular protein and the results appear in FIGS. 11A-11C.
ATB200 was also shown to be efficiently internalized into cells. […] ATB200 saturates cellular receptors at about 20 nM, while about 250 nM of Lumizyme® is needed to saturate cellular receptors.

The test system of data set [4] is Gaa KO mice. Description: Single fiber analysis, LAMP1/LC3 co-immunofluorescence. The class given is in vivo. An excerpt: FIG. 17 depicts co-immunofluorescent staining of LAMP1 (green) (see for example, “B”) and LC3 (red) (see, for example, “A”) in single fibers isolated from the white gastrocnemius of Gaa KO mice treated with a vehicle, alglucosidase alfa, or ATB200. “C” depicts clearance of autophagic debris and absence of enlarged lysosome. A minimum of 30 fibers were examined from each animal.
As a result, a significant portion of muscle fibers analyzed (36-60%) from ATB200-treated mice appeared normal or near-normal.

On the set-up of data set [5]: species or system human. To be noted: in vivo. The protocol: Preclinical studies were conducted in Gaa knockout mice to evaluate the pharmacokinetics (PK) and efficiency of glycogen reduction at varying ATB200 enzyme replacement therapy (ERT) and AT2221 chaperone doses. […] Study ATB200-02 (NCT02675465) was then designed as an open-label fixed-sequence, ascending dose, first-in-human, phase 1/2 study to evaluate the safety, tolerability, PK, pharmacodynamics (PD), and efficacy of ATB200 co-administered with AT2221 in patients with Pompe disease. FIGS. 19A-19B present the ATB200-02 study design. Ambulatory patients who have previously received enzyme replacement therapy with alglucosidase alfa are referred to as ambulatory ERT-switch (or ERT-switch ambulatory) patients or Cohort 1 patients. Nonambulatory patients who have previously received enzyme replacement therapy with alglucosidase alfa are referred to as nonambulatory ERT-switch (or ERT-switch nonambulatory) patients or Cohort 2 patients. Ambulatory patients who have not previously received enzyme replacement therapy with alglucosidase alfa are referred to as ERT-naïve (or ERT-naïve ambulatory) patients or Cohort 3 patients. Total GAA protein concentrations in plasma for ATB200 at 5 mg/kg, 10 mg/kg, and 20 mg/kg were determined by validated LC-MS/MS quantification of rhGAA-specific “signature” peptide(s) […] (primary) and T50 (confirmatory) for 11 Cohort 1 patients who completed Stages 1 and 2, as well as for five Cohort 2 patients who completed the PK study in Stage 3. For Stage 1, blood samples for plasma total GAA protein concentration were collected prior to the start of ATB200 infusion and at 1, 2, 3, 3.5, 4, 4.5, 5, 6, 8, 10, 12, and 24 hour(s) after the start of infusion. For Stage 2 and Stage 3, blood samples for plasma total GAA protein concentration were collected prior to the start of infusion and at 1, 2, 3, 3.5, 4, 4.5, 5, 6, 8, 10, 12, and 24 hour(s) after the start of infusion.

In data set [6] the target is T1, CIMPR. The experiment in a line: CIMPR affinity chromatography. The class given is binding. To be noted: CIMPR affinity column; fraction of total enzyme by GAA activity. An excerpt:
Multiple batches of the rhGAA according to the invention were produced in shake flasks and in perfusion bioreactors using CHO cell line GA-ATB200, the product of which is referred to as “ATB200.” Weak anion exchange (“WAX”) liquid chromatography was used to fractionate ATB200 rhGAA according to terminal phosphate and sialic acid. Elution profiles were generated by eluting the ERT with increasing amount of salt. The profiles were monitored by UV (A280 nm).
To evaluate the ability of the conventional rhGAAs in Myozyme® and Lumizyme® to interact with the CIMPR, the two conventional rhGAA preparations were injected onto a CIMPR affinity column (which binds rhGAA having M6P groups) and the flow through collected. The bound material was eluted with a free M6 gradient. Fractions were collected in 96-well plate and GAA activity assayed by 4MU-α-glucosidase substrate. The relative amounts of unbound (flow through) and bound (M6P eluted) rhGAA were determined based on GAA activity and reported as the fraction of total enzyme. […] Indeed, only 27% of the rhGAA in Myozyme® and 22% of the rhGAA in Lumizyme® contained M6P that can be productive to target it to the CIMPR on muscle cells.

Data set [7] has as its system Gaa KO mice. The experiment in a line: Muscle fiber biomarkers LAMP1, LC3, dysferlin. The class given is in vivo. The protocol: The therapeutic effects of ATB200 and AT2221 were evaluated and compared against those of Alglucosidase alfa in Gaa KO mice. For the study, male Gaa KO (3- to 4-month old) and age-matched wild-type (WT) mice were used. Alglucosidase alfa was administered via bolus tail vein intravenous (IV) injection. In the co-administration regimen, AT2221 was administered via oral gavage (PO) 30 minutes prior to the IV injection of ATB200. Treatment was given biweekly. Treated mice were sacrificed after 14 days from the last administration and various tissues were collected for further analysis. Table 7 summarizes the study design:
Tissue samples were also analyzed for biomarker changes following the methods discussed in: Khanna R, et al. (2012), “The pharmacological chaperone AT2220 increases recombinant human acid α-glucosidase uptake and glycogen reduction in a mouse model of Pompe disease,” Plos One 7(7): e40776; and Khanna. […]
Similarly, intense LC3-positive aggregates in the muscle fibers of untreated Gaa KO mice signify the presence of autophagic zones and autophagy build-up. […] A similar observation was made when the expression of LC3 was assessed using western blot. […]
Dysferlin, a protein involved in membrane repair and whose deficiency/mistrafficking is associated with a number of muscular dystrophies, w as also assessed.

[8] abbreviates: single fibers from white gastrocnemius.

Marks after values point to notes of the source that are not given here.

T1 sequence (P11717 41-2491, species assumed): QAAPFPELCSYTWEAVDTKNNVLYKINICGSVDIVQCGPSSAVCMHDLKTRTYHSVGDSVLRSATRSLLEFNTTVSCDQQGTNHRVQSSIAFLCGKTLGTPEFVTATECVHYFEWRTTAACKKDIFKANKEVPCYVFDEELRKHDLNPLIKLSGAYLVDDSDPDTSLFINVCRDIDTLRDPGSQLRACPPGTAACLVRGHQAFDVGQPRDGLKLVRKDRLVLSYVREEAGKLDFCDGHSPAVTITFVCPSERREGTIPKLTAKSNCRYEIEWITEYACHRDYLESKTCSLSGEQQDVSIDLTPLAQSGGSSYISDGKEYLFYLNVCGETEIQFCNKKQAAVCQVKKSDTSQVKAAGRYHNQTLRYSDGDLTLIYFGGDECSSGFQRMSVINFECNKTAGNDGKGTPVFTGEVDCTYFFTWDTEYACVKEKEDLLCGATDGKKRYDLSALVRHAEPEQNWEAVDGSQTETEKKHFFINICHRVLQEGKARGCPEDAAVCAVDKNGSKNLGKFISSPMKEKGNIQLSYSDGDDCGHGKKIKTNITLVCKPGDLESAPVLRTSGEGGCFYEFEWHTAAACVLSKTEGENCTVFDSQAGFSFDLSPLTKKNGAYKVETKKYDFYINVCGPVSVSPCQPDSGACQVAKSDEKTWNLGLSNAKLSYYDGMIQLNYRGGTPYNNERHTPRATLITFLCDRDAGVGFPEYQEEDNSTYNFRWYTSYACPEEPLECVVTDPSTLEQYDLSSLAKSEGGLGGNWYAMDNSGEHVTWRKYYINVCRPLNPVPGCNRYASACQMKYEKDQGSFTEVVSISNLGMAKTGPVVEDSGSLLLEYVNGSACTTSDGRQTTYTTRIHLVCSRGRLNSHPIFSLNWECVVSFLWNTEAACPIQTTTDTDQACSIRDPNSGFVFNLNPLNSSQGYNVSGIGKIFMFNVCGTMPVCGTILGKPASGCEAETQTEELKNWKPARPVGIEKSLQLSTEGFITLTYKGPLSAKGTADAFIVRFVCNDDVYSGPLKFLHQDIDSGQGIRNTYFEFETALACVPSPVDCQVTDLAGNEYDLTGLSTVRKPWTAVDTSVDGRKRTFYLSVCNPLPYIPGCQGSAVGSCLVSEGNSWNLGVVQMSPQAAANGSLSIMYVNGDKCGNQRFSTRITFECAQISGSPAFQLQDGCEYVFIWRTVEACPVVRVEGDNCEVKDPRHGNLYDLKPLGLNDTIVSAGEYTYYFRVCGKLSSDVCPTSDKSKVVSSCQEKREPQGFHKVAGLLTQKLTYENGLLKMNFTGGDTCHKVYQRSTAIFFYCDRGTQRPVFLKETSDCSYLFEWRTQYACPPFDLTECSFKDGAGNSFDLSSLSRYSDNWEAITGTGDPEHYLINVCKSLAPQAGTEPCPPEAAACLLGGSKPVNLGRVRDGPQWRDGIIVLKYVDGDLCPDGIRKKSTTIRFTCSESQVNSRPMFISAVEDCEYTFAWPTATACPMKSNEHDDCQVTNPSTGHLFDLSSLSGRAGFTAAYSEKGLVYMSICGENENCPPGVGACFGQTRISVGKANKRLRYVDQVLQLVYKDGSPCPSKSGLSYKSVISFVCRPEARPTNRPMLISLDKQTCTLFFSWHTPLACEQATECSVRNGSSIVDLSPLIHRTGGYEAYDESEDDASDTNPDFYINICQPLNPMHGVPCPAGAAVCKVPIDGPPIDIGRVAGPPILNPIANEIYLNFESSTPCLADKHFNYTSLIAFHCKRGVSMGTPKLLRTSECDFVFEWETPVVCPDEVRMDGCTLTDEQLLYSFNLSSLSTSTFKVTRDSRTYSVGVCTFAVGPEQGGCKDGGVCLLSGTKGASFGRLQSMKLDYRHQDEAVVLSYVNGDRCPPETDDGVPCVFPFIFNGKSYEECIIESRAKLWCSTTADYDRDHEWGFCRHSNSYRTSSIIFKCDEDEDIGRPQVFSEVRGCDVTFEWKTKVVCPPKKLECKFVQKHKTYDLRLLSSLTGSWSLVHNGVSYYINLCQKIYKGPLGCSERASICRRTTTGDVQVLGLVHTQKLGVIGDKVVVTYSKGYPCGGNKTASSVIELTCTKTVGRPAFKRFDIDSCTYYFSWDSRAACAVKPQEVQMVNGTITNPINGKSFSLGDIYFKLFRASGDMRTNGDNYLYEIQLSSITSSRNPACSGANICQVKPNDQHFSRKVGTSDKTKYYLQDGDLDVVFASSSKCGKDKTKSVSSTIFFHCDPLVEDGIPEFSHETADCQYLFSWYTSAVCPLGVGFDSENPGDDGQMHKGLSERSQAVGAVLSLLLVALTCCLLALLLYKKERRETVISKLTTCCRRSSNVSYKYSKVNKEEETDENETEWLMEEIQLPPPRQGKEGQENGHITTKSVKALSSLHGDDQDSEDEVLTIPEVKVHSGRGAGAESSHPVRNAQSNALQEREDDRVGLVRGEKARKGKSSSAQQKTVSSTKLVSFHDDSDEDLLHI

Take `CCCCN1C[C@H](O)[C@@H](O)[C@H](O)[C@H]1CO` [AT2221, (2R,3R,4R,5S)-1-butyl-2-(hydroxymethyl)piperidine-3,4,5-triol, reference compound]: in data set [1] (pH 7.4), the “stabilization of ATB200” value is recorded as “stabilized ATB200 at pH 7.4 in a concentration-dependent manner”.

With “ATB200: rhGAA with a high content of N-glycans bearing mono-M6P and bis-M6P, produced from a GA-ATB200 CHO cell line”, the “binding to CIMPR compared with Lumizyme” value in data set [2] (CIMPR-coated plates, varying rhGAA concentrations) is reported as “bound to CIMPR significantly better than Lumizyme®”. For the same compound, the Kd in data set [2] (M6P receptor plate binding assays, read-out: Ku, high-affinity binding to CIMPR) was in the range of 2 to 4 nM. Moreover, in data set [3], the “concentration that saturates cellular receptors” value is “about 20 nM” and the “uptake efficiency constant (Kuptake)” value is recorded as 2-3 nm. Also, the “internalization into normal and Pompe fibroblast cells” value in data set [3] (compared with Lumizyme) is reported as “internalized to a greater degree than the conventional rhGAA product Lumizyme®”. Moreover, the Tm in data set [1] (pH 5.2) stood at 67.3 °C. For the same compound, in data set [1] (pH 7.4), the Tm was 56.2 °C and the “increase of melting temperature (Tm) on addition of AT2221” value is around 10 °C. For the same compound, the Tm in data set [1] (pH 7.4 + 10 μM AT2221) was 61.6 °C. For the same compound, the Tm in data set [1] (pH 7.4 + 30 μM AT2221) stood at 62.9 °C. Further, in data set [1] (pH 7.4 + 100 μM AT2221), the Tm was found to be 66.0 °C. Besides, the “area with autophagic buildup” value in data set [4] (single fibers) is given as “reduced to various degrees”. The “Fibers with Autophagy Buildup” value in data set [4] (setting [8]) is on record as 40-64%*. Further, in data set [5] (human), the “increase in distribution half-life (α-phase)” value is reported as 40% and the “increase in partial AUC from time to maximum plasma concentration to 24 hours post-dose” value is reported as 42.2%. In data set [5], the “AUC ratio, signature peptide T50 vs T09” value is 1.00; the “dose proportionality of ATB200 levels” value is “slightly greater-than-dose proportional”; the “plasma total GAA protein exposure, ERT-naive (Cohort 3) vs ERT-switch (Cohort 1)” value is “no statistically significant difference”.

For the compound “Lumizyme®: conventional rhGAA product containing alglucosidase alfa, marketed by Genzyme [reference compound]”, in data set [6], the “rhGAA that binds to the CIMPR” value is 22% and the “rhGAA that did not bind to the CIMPR” value amounted to 78%. Besides, in data set [3], the “concentration that saturates cellular receptors” value is “about 250 nM” and the “uptake efficiency constant (Kuptake)” value is given as 56 nM.

For “Myozyme®: conventional rhGAA product containing alglucosidase alfa, marketed by Genzyme”, in data set [6], the “rhGAA that binds to the CIMPR” value is given as 27% and the “rhGAA that did not bind to the CIMPR” value amounted to 73%. Further, in data set [4] (single fibers), the “lysosome size and autophagic buildup compared to vehicle-treated mice” value is recorded as “did not show any significant difference”.

Regarding “[199-arginine,223-histidine]prepro-α-glucosidase (human) [alglucosidase alfa, reference compound]”, the effect on autophagy result in data set [7] is listed as “modest”. Besides, in data set [4] (setting [8]), the “Fibers with Autophagy Buildup” value is given as above 90% and the “Fibers with Normal or Near-normal Appearance” value is given as below 10%.
